According to the supplement of paper PMC10266784:

B1: library; numbered along this chain (parent)
chain: MAAAAAAAAEQQSSNGPVKKSMREKAVERRSVNKEHNSNFKAGYIPIDEDRLHKTGLRGRKGNLAICVIILLFILAVINLIITLVIWAVIRIGPNGCDSMEFHESGLLRFKQVSDMGVIHPLYKSTVGGRRNENLVITGNNQPIVFQQGTTKLSVENNKTSITSDIGMQFFDPRTQNILFSTDYETHEFHLPSGVKSLNVQKASTERITSNATSDLNIKVDGRAIVRGNEGVFIMGKTIEFHMGGNMELKAENSIILNGSVMVSTTRLPSSSSGDQLGSGDWVRYKLCMCADGTLFKVQVTSQNMGCQISDNPCGNTH

Variants of: B1
Assay: SGCB cell-surface expression functional score (HA stain, bin4 vs bin1, normalised to synonymous) (log10 ratio); higher = more cell-surface SGCB (functional)
Method in brief: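 Sorting and sequencing yield the functional score, defined as the log ratio of a variant's highest-bin frequency to its lowest-bin frequency, with the median taken over codons and replicate transductions. The libraries, codon-saturation sets of HA-tagged, YFP-fused human beta-sarcoglycan, went into HEK293 cells stably carrying alpha-, gamma- and delta-sarcoglycan by duplicate lentiviral transduction at MOI <0.1. Cells were stained on ice with Alexa Fluor 647 anti-HA, fixed and split into four 5% intensity bins, and synonymous variants were scaled per section to mean 0, SD 0.5.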

SGCB cell-surface expression functional score (log10) of substitutions, site by site:
C97: T -0.03 | W -1.46 | P -0.47 | V 0.16 | I 0.31 | N -1.16 | S -0.18 | Y -1.89 | F -1.5 | M -0.29 | K -1.3 | D -2.33 | Q -1.14 | G -1.91 | A -0.14 | E -1.87 | R -1.75 | L 0.37 | H -2.29
N95: M 0.68 | V -0.38 | I -0.83 | K 0.16 | L -0.06 | H -1.18 | G 0.21 | Q -0.12 | D -0.24 | A 0.01 | W 0.34 | T -0.1 | C -0.17 | P -1.26 | R -0.09 | Y 0.15 | E 0.05 | F 0.3 | S 0.16
G93: I -2.15 | H 0.32 | S -0.25 | V -1.79 | M -1.49 | W -0.45 | Q -0.8 | L -1.84 | E -1.2 | P -1.64 | Y -1.86 | D -0.19 | K -0.15 | N -0.14 | C -1.43 | F -1.18 | A -0.97 | T 0.23 | R -0.4
I90: E -1.22 | S -0.35 | W -0.2 | C 0.33 | P -1.1 | R -0.63 | K 0.13 | H -1.82 | M -0.16 | G -0.76 | A 0.12 | V 0.01 | Q -0.71 | T 0.06 | L 0.26 | Y -1.02 | F -1.5 | D -0.63 | N 0.07
P94: D -1.08 | K 0.29 | G -0.25 | H 0.01 | S -0.11 | W 0.26 | I -0.61 | Y 0.29 | Q 0.21 | M 0.27 | V -0.24 | N -0.88 | F 0.24 | C -0.07 | E -0.29 | L -0.17 | A 0.03 | R -0.65 | T -0.07
I92: A -1.94 | G -0.75 | P -1.96 | E -2.15 | N -1.68 | Q -1.97 | W -2.43 | D -2.38 | M -0.21 | H -1.9 | L -0.39 | Y -2.16 | S -2.23 | V -0.31 | R -1.46 | C -1.75 | F -0.74 | K -1.31 | T -1.03
G96: F -2.5 | E -1.89 | H -1.77 | Y -2.29 | S -1.81 | D -2.13 | M -1.68 | Q -2.14 | I -1.54 | W -0.61 | C -1.66 | R -1.51 | L -2.08 | T -1.72 | N -2.04 | P -1.62 | K -2.21 | V -1.95 | A -1.24
D98: G -0.2 | H 0.4 | C -0.07 | A 0.32 | K -0.4 | L 0.1 | I -1 | E -0.21 | F -0.64 | P -0.12 | N -0.3 | M 0.01
V89: Y -1.29 | T -0.3 | W -1.16
R91: L -1.93 | T -2.04 | K 0.34 | S -0.79 | V -1.43 | M -1.94 | N -0.75 | H 0 | G -0.52 | C -0.72 | Y -1.94 | Q 0.15 | W -1.69 | A -0.38 | I -1.85 | E -0.8 | P -1.76 | D -1.32 | F -1.71
